The record followed here is patent US20160024210A1 (AstraZeneca / MedImmune, published 2016).

Substitutions are numbered along the chain they refer to.

The target in assay [1] is T1, H7CR-GFP fusion protein on transfected CHO cells (Homo sapiens (Human), UniProt Q96BF3 23-282).
T1 construct: not shown: GFP part
T1 sequence: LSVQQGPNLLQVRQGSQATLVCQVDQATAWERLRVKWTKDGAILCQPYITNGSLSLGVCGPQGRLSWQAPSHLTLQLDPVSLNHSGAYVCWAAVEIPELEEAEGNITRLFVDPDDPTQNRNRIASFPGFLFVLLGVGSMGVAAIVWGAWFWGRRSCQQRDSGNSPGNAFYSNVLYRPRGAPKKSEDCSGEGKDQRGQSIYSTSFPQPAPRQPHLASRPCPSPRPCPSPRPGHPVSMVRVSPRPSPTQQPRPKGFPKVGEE
Description: flow cytometry, 5 µg/ml variant on H7CR-GFP transfected CHO cells, anti-hIg PE secondary antibody [row HC2-1, column LC2-1]. The procedure: (§1) 5 μg/ml antibodies from thirty-six variants were incubated with H7CR-GFP fusion protein transfected CHO cells for 30 min at room temperature. Cells were then washed twice with 2 ml flow cytometry buffer, and resuspended in 100 μl flow cytometry buffer. 1 μl anti-hIg PE secondary antibody (Biolegend) was added and incubated with the cells for 15 mins Samples were then washed and resuspended in 100 μl flow cytometry buffer. Flow Cytometry data was acquired using BD Canto (BD Biosciences) in plate format and analyzed by FlowJo software.
On the technique in general: Flow cytometry measures light scatter and fluorescence of single cells or particles in a stream.

Assay [2] deals with T2, human H7CR (B7-H7 counter-receptor) (human, UniProt Q96BF3 23-282).
T2 construct: Used for H7CR on CHO.hH7CR transfectants, human T cells and tonsil tissue; also called B7-H7CR; CD28H
T2 sequence: T1 sequence
The experiment in a line: binding to human H7CR as endogenously expressed on the surface of a cell.

Assay [3] concerns the target T1, H7CR-GFP fusion protein on transfected …. The experiment in a line: flow cytometry, 5 µg/ml variant on H7CR-GFP transfected CHO cells, anti-hIg PE secondary antibody [row HC2-1, column LC2-2]. The procedure: as §1
Assay [4] shares this target. Description: flow cytometry, 5 µg/ml variant on H7CR-GFP transfected CHO cells, anti-hIg PE secondary antibody [row HC2-1, column LC2-3]. The procedure: as §1
The target is the same in assay [5]. The experiment in a line: flow cytometry, 5 µg/ml variant on H7CR-GFP transfected CHO cells, anti-hIg PE secondary antibody [row HC1-3, column LC1-1]. The procedure:
as §1

For assay [6] the target is unchanged. The experiment in a line: flow cytometry, 5 µg/ml variant on H7CR-GFP transfected CHO cells, anti-hIg PE secondary antibody [row HC2-2, column LC1-2]. The procedure:
as §1

Assay [7] has the same target. The experiment in a line: flow cytometry, 5 µg/ml variant on H7CR-GFP transfected CHO cells, anti-hIg PE secondary antibody [row HC1-2, column LC2-2]. The protocol: as §1
The target is the same in assay [8]. The experiment in a line: flow cytometry, 5 µg/ml variant on H7CR-GFP transfected CHO cells, anti-hIg PE secondary antibody [row HC2-1, column LC1-1]. The protocol:
as §1

Assay [9] shares this target. Description: flow cytometry, 5 µg/ml variant on H7CR-GFP transfected CHO cells, anti-hIg PE secondary antibody [row HC1-3, column LC2-3]. The procedure:
as §1

For assay [10] the target is unchanged. The experiment in a line: flow cytometry, 5 µg/ml variant on H7CR-GFP transfected CHO cells, anti-hIg PE secondary antibody [row HC1-3, column LC2-1]. The protocol:
as §1

For assay [11] the target is unchanged. The experiment in a line: flow cytometry, 5 µg/ml variant on H7CR-GFP transfected CHO cells, anti-hIg PE secondary antibody [row HC2-1, column LC1-3]. The procedure:
as §1

For assay [12] the target is unchanged. Description: flow cytometry, 5 µg/ml variant on H7CR-GFP transfected CHO cells, anti-hIg PE secondary antibody [row HC1-3, column LC2-2]. The procedure: as §1
Assay [13] shares this target. Description: flow cytometry, 5 µg/ml variant on H7CR-GFP transfected CHO cells, anti-hIg PE secondary antibody [row HC1-3, column LC1-3]. The protocol:
as §1

Assay [14] has the same target. Description: flow cytometry, 5 µg/ml variant on H7CR-GFP transfected CHO cells, anti-hIg PE secondary antibody [row HC1-3, column LC1-2]. The procedure:
as §1

Assay [15] shares this target. Description: flow cytometry, 5 µg/ml variant on H7CR-GFP transfected CHO cells, anti-hIg PE secondary antibody [row HC1-2, column LC2-3]. The procedure: as §1
Assay [16] has the same target. Description: flow cytometry, 5 µg/ml variant on H7CR-GFP transfected CHO cells, anti-hIg PE secondary antibody [row HC2-2, column LC1-1]. The procedure:
as §1

For assay [17] the target is unchanged. Description: flow cytometry, 5 µg/ml variant on H7CR-GFP transfected CHO cells, anti-hIg PE secondary antibody [row HC2-1, column LC1-2]. The procedure: as §1

B1: 4.5 humanized variant 22 (HC2-1 / LC2-1) (antibody, V domains shown)
VH: QITLKESGPTLVKPTQTLTLTCTFSGFSITTGGYYVGWIRQPPGKALEWLALIYTSGRTRYSPSLKSRLTITKDTSKNQVVLTMTNMDPVDTATYYCADMADKGGWFAYWGQGTLVTVSS
VL: DIVMTQTPLSLPVTPGEPASISCRSSQSLFSSNTKRNYLDWYLQKPGQSPQLLIYHASYRASGVPDRFSGSGSGTDFTLKISRVEAEDVGVYYCQQHYETPLTFGQGTRLEIK
notes: Variable domains only; detected with anti-hIg secondary; also called VH2A / VL2A
In the case of B1, the binding result in assay [1] and in assay [2] was “binds” each time.

B2: 4.5 humanized variant 23 (HC2-1 / LC2-2) (antibody, V domains shown)
VH: B1 VH
VL: B1 VL with D40N, Q51K, Y59T, A61L, V91D, Y93F, Q106D
notes: Variable domains only; detected with anti-hIg secondary; also called VH2A / VL2B
With B2, the binding result in assay [3] and in assay [2] was “binds” in each case.

B3: 4.5 humanized variant 24 (HC2-1 / LC2-3) (antibody, V domains shown)
VH: B1 VH
VL: B1 VL with L9S, R24L, D40N, Q51K, Y59T, A61L, V91D, Y93F, Q106D
notes: Variable domains only; detected with anti-hIg secondary; also called VH2A / VL2C
In the case of B3, the binding result in [4] and in assay [2] was “binds” each time.

B4: 4.5 humanized variant 13 (HC1-3 / LC1-1) (antibody, V domains shown)
VH: QVQLQESGPGLVKPSQTLSLTCTVSGFSITTGGYYWNWIRQFPGKKLEWMGYIYTSGRTSYNPSLKSRVTISRDTSKNQFSLKLSSVTAADTAVYYCADMADKGGWFAYWGQGTLVTVSS
VL: DIVMTQSPDSLAVSLGERATINCKSSQSLFSSNTKRNYLAWYQQKPGQPPKLLIYHASTRESGVPDRFSGSGSGTDFTLTISSLQAEDVAVYYCQQHYETPLTFGQGTRLEIK
notes: Variable domains only; detected with anti-hIg secondary; also called VH1C / VL1A
As for B4, the binding result in [5] and in [2] was “binds” in each case.

B5: 4.5 humanized variant 26 (HC2-2 / LC1-2) (antibody, V domains shown)
VH: B1 VH with F24V, V36W, G37N, A46K, R60S, S62N
VL: B4 VL with A40N, E61L, V91D, Y93F, Q106D
notes: Variable domains only; detected with anti-hIg secondary; also called VH2B / VL1B
For the molecule B5, the binding result in assay [6] and in assay [2] was “binds” throughout.

B6: 4.5 humanized variant 11 (HC1-2 / LC2-2) (antibody, V domains shown)
VH: B4 VH with F42H, M50I
VL: B1 VL with D40N, Q51K, Y59T, A61L, V91D, Y93F, Q106D
notes: Variable domains only; detected with anti-hIg secondary; also called VH1B / VL2B
With B6, the binding result in assay [7] and in [2] was “binds” throughout.

B7: 4.5 humanized variant 19 (HC2-1 / LC1-1) (antibody, V domains shown)
VH: B1 VH
VL: B4 VL
notes: Variable domains only; detected with anti-hIg secondary; also called VH2A / VL1A
On to B7, for which the binding result in [8] and in assay [2] was “binds” in each case.

B8: 4.5 humanized variant 18 (HC1-3 / LC2-3) (antibody, V domains shown)
VH: B4 VH
VL: B1 VL with L9S, R24L, D40N, Q51K, Y59T, A61L, V91D, Y93F, Q106D
notes: Variable domains only; detected with anti-hIg secondary; also called VH1C / VL2C
For B8, the binding result in assay [9] and in assay [2] was “binds” throughout.

B9: 4.5 humanized variant 16 (HC1-3 / LC2-1) (antibody, V domains shown)
VH: B4 VH
VL: B1 VL
notes: Variable domains only; detected with anti-hIg secondary; also called VH1C / VL2A
In the case of B9, the binding result in assay [10] and in [2] was “binds” in each case.

B10: 4.5 humanized variant 21 (HC2-1 / LC1-3) (antibody, V domains shown)
VH: B1 VH
VL: B4 VL with K24L, A40N, P49S, E61L, V91D, Y93F, Q106D
notes: Variable domains only; detected with anti-hIg secondary; also called VH2A / VL1C
Regarding B10, the binding result in [11] and in assay [2] was “binds” throughout.

B11: 4.5 humanized variant 17 (HC1-3 / LC2-2) (antibody, V domains shown)
VH: B4 VH
VL: B1 VL with D40N, Q51K, Y59T, A61L, V91D, Y93F, Q106D
notes: Variable domains only; detected with anti-hIg secondary; also called VH1C / VL2B
For B11, the binding result in assay [2] and in [12] was “binds” in each case.

B12: 4.5 humanized variant 15 (HC1-3 / LC1-3) (antibody, V domains shown)
VH: B4 VH
VL: B4 VL with K24L, A40N, P49S, E61L, V91D, Y93F, Q106D
notes: Variable domains only; detected with anti-hIg secondary; also called VH1C / VL1C
As for B12, the binding result in assay [13] and in assay [2] was “binds” throughout.

B13: 4.5 humanized variant 14 (HC1-3 / LC1-2) (antibody, V domains shown)
VH: B4 VH
VL: B4 VL with A40N, E61L, V91D, Y93F, Q106D
notes: Variable domains only; detected with anti-hIg secondary; also called VH1C / VL1B
On to B13, for which the binding result in assay [14] and in assay [2] was “binds” in each case.

B14: 4.5 humanized variant 12 (HC1-2 / LC2-3) (antibody, V domains shown)
VH: B4 VH with F42H, M50I
VL: B1 VL with L9S, R24L, D40N, Q51K, Y59T, A61L, V91D, Y93F, Q106D
notes: Variable domains only; detected with anti-hIg secondary; also called VH1B / VL2C
Take B14: the binding result in assay [15] and in [2] was “binds” each time.

B15: 4.5 humanized variant 25 (HC2-2 / LC1-1) (antibody, V domains shown)
VH: B1 VH with F24V, V36W, G37N, A46K, R60S, S62N
VL: B4 VL
notes: Variable domains only; detected with anti-hIg secondary; also called VH2B / VL1A
As for B15, the binding result in assay [16] and in [2] was “binds” in each case.

B16: 4.5 humanized variant 20 (HC2-1 / LC1-2) (antibody, V domains shown)
VH: B1 VH
VL: B4 VL with A40N, E61L, V91D, Y93F, Q106D
notes: Variable domains only; detected with anti-hIg secondary; also called VH2A / VL1B
B16: the binding result in assay [17] and in [2] was “binds” each time.
